Results on eight molecules are retold here after patent publication US20160068605A1 (Janssen / Centocor, published 2016).

Experiment [1] has as its target T1, Recombinant human CD123 SP1 ECD-His tag protein (human, UniProt P26951 20-305).
T1 construct: bought from R&D Systems (#301-R3/CF); biotinylated for some assays; also called rhCD123 SP1; huCD123 ECD SP1
T1 sequence: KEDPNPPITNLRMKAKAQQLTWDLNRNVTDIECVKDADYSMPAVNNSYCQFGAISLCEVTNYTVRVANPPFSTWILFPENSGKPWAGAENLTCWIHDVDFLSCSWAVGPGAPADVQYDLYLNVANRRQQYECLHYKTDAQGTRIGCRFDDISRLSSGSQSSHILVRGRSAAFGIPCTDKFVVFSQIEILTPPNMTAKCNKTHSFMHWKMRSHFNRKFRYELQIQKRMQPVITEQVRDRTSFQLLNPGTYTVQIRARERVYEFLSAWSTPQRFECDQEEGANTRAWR
Nature of the experiment: SPR ProteOn, captured mAb. On the procedure: (§1) The biosensor surface was prepared by covalently coupling Goat anti-Human IgG (Fc) to the surface of a GLC chip (BioRad) using the manufacturer instructions for amine-coupling chemistry. […] The RU immobilized also included a goat anti-mouse Fc antibody that was added to capture other antibodies not included in the ones reported here. Since the mixture was 1:1 about 50% of these RU immobilized are expected to be goat anti-human Fc. The kinetic experiments were performed at 25° C. in running buffer (PBS pH 7.4, 0.005% P20, 3 mM EDTA). […] The reference spots (Goat anti-Human IgG (Fc)-modified surface) containing no candidate captured were used as a reference surface. Capture of mAb was followed by 3 min injection (association phase) of antigen at 40 μL/min, followed by 10 min of buffer flow (dissociation phase). […] Data was processed on the instrument software. Double reference subtraction of the data was performed by subtracting the curves generated by buffer injection from the reference-subtracted curves for analyte injections. Kinetic analysis of the data was performed using 1:1 Langmuir binding model with group fit. The result for each mAb was reported in the format of Kₐ (kon or on-rate), Kd (koff or off-rate), KD (Equilibrium dissociation constant) (Table 5).

Experiment [2] deals with T2, Recombinant human CD123 SP2 ECD protein (human, UniProt P26951 101-303).
T2 construct: also called rhCD123 SP2; CD123 ECD SP2
T2 sequence: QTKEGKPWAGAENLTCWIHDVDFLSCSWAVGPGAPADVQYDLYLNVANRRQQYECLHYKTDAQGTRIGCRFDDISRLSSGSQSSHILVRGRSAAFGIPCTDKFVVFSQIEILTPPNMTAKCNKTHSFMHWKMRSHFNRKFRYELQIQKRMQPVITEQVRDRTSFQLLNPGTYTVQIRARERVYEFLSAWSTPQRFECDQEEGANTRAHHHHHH
Briefly: SPR ProteOn, captured mAb. On the procedure:
as §1

Experiment [3] has as its target T3, human CD123 SP2 ECD displayed on pDisplay-transfected cells (human, UniProt P26951 101-305).
T3 construct: ECD anchored on the surface of stably transfected HEK293 cells; also called hCD123 SP2 cells; pDisplay CD123SP2
T3 sequence: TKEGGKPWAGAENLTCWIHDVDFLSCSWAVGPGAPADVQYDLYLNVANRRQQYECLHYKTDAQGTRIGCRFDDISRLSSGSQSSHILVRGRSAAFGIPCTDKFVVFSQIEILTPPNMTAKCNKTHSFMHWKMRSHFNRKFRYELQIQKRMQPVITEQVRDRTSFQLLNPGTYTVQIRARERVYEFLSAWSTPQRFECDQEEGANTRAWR
Briefly: MSD cell binding on 293F pDisplay cells; fold change over background; parental 293F cells as control. On the procedure:
(§2) The object of the screening assay was to identify antibodies that bound to cells expressing hCD123 SP1 and SP2 as well as cross reactivity with cells expressing cynoCD123 SP1.
(§3) Cells were immobilized and phages were assayed in triplicate. […] 5000 cells per well were plated into a 384 well plate (MA6000, cat. L21XB, MSD) and allowed to adhere for 2 hr. Cells were then blocked with 20% FBS in PBS (Gibco) for 15 mins. Antibody supernatants were then added and left at RT for 1 hr. Cells were washed 3 times with PBS and a ruthenium labeled secondary antibody (Jackson Immuno Research) was then added at 1 μg/mL and incubated for 1 hr at room temperature. A further washing step was then applied and 35 μL per well of MSD Read buffer T (surfactant free) was then added and incubated for 30 min for detection. Plates were then read using Sector Imager 2400 (MSD). Data was normalized to controls and graphed using GraphPad Prism Version 5. A positive binder was determined to be a hit with a signal 3× greater than background (FIGS. 2A, B and C).

In experiment [4] the target is T4, cyno CD123 ECD displayed on pDisplay-transfected cells (cynomolgus monkey).
T4 construct: ECD anchored on the surface of stably transfected HEK293 cells; also called cynoCD123 SP1 cells; cynoCD123 cells
T4 chain: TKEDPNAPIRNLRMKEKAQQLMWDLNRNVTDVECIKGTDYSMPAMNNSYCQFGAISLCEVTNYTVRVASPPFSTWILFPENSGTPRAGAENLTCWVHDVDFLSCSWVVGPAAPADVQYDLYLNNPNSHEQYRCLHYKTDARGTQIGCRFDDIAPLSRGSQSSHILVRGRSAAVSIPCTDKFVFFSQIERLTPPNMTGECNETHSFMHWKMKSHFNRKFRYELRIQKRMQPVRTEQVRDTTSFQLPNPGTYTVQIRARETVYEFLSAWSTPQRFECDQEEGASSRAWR
The description is as above. On the procedure: as §2, §3

Experiment [5] deals with T5, cell-surface CD3 epsilon on primary human T cells (human, UniProt P07766 23-207).
T5 construct: whole, on cells; part of the CD3/TCR complex on the cells
T5 sequence (P07766 23-207): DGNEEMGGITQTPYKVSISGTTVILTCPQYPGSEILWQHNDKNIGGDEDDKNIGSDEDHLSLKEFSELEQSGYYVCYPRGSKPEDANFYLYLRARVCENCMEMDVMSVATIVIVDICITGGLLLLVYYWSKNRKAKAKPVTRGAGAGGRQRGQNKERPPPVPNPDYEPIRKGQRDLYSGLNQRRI
Nature of the experiment: flow cytometry competition with labeled CD3B146 on T cells. The source says:
(§4) The format involved competition binding using a fixed concentration of labeled anti-CD3 mAb of known affinity and increasing concentrations of unlabeled test Abs (Ashkenazi A et al. PNAS: 88:10535, 1991.).
Background: A flow cytometer gives signals particle by particle.

The target in experiment [6] is T6, cell-surface CD3 epsilon on primary cynomolgus T cells (cynomolgus monkey, UniProt Q95LI5 22-198).
T6 construct: whole, on cells; also called cynomolgus CD3e; Cyno T-cells
T6 sequence (Q95LI5 22-198): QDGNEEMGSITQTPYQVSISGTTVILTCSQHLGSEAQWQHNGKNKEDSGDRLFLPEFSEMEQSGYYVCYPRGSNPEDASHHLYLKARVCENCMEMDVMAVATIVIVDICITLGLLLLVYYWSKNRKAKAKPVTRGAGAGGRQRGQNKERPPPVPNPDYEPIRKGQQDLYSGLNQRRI
The description is as above.
Text: as §4

Changes are numbered by the printed parent chain. In names and notes the source's numbering stands.

B1: I3RB7 (antibody, IgG1, V domains shown)
VH: QVQLVQSGAEVKKPGSSVKVSCKASGGTFSSYAISWVRQAPGQGLEWMGGIIPIFGTANYAQKFQGRVTITADESTSTAYMELSSLRSEDTAVYYCARGKRWLADAGDFDYWGQGTLVTVSS
VL: not shown
notes: IgG1; also called I3RB07
In the case of B1, in experiment [1], the Kd was 15.4 nM, the koff is 0.0147 s⁻¹ and the kon was 954000 M⁻¹ s⁻¹. Also, the binding result in experiment [2] is “no binding (tested: 400 nM)”. In addition, the binding result in experiment [3] is recorded as “no binding (tested: 10 µg/mL)”.

B2: I3RB34 (antibody, IgG1, V domains shown)
VH: QVQLVQSGAEVKKPGSSVKVSCKASGGTFSSYAISWVRQAPGQGLEWMGGIIPIFGTANYAQKFQGRVTITADESTSTAYMELSSLRSEDTAVYYCARGWSYYRLDYWGQGTLVTVSS
VL: EIVLTQSPATLSLSPGERATLSCRASQSVDKWLAWYQQKPGQAPRLLIYYASNRATGIPARFSGSGSGTDFTLTISSLEPEDFAVYYCQQFDRAPFTFGQGTKVEIK
notes: IgG1; also called 13RB34
Turning to B2, in experiment [1], the Kd amounted to 56.8 nM, the koff is 0.0283 s⁻¹ and the kon amounted to 497000 M⁻¹ s⁻¹. Moreover, the binding result in experiment [2] is listed as “no binding (tested: 400 nM)”. For the same molecule, in experiment [4], the binding result was “binds”. Moreover, in experiment [3], the binding result is reported as “no binding (tested: 10 µg/mL)”.

B3: I3RB24 (antibody, IgG1, V domains shown)
VH: QVQLVQSGAEVKKPGSSVKVSCKASGGTFSSYAISWVRQAPGQGLEWMGGIIPIFGTANYAQKFQGRVTITADESTSTAYMELSSLRSEDTAVYYCARHTDAWGYRLDYWGQGTLVTVSS
VL: not shown
notes: IgG1
Consider B3, for which, in experiment [1], the Kd turned out to be 201 nM, the koff is 0.226 s⁻¹ and the kon stood at 1.13e+06 M⁻¹ s⁻¹. In addition, the binding result in experiment [2] was “no binding (tested: 400 nM)”. Moreover, the binding result in experiment [4] is on record as “no binding (tested: 10 µg/mL)”. The binding result in experiment [3] is given as “no binding (tested: 10 µg/mL)”.

B4: I3RB12 (antibody, IgG1, V domains shown)
VH: B3 VH with H99A, T100D, D101R, A102V, G104D, R106Y
VL: not shown
notes: IgG1
As for B4, in experiment [1], the Kd was 9.61 nM, the koff was determined as 0.0078 s⁻¹ and the kon came to 812000 M⁻¹ s⁻¹. The binding result in experiment [2] is “no binding (tested: 400 nM)”. The binding result in experiment [4] was “no binding (tested: 10 µg/mL)”. Also, in experiment [3], the binding result is given as “no binding (tested: 10 µg/mL)”.

B5: I3RB29 (antibody, IgG1, V domains shown)
VH: B3 VH with H99D, T100S, D101R, A102I, G104S, Y105F, R106S
VL: DIQMTQSPSSLSASVGDRVTITCRASQSIGEWLNWYQQKPGKAPKLLIYAASSLQSGVPSRFSGSGSGTDFTLTISSLQPEDFATYYCQQYYHFPLTFGQGTKVEIK
notes: IgG1
B5: in experiment [1], the Kd was found to be 5.9 nM, the koff amounted to 0.00132 s⁻¹ and the kon amounted to 224000 M⁻¹ s⁻¹. Also, the binding result in experiment [2] is given as “no binding (tested: 400 nM)”. In addition, the binding result in experiment [3] is “no binding (tested: 10 µg/mL)”.

B6: CD123 null 4 (bispecific antibody, human IgG4 S228P, lambda, F234A L235A)
heavy: EVQLVESGGGLVQPGGSLKLSCAASGFTFNTYAMNWVRQASGKGLEWVGRIRSKYNAYATYYAASVKGRFTISRDDSKNTAYLQMNSLKTEDTAVYYCTRHGNFGNSYVSWFAYWGQGTLVTVSSASTKGPSVFPLAPCSRSTSESTAALGCLVKDYFPEPVTVSWNSGALTSGVHTFPAVLQSSGLYSLSSVVTVPSSSLGTKTYTCNVDHKPSNTKVDKRVESKYGPPCPPCPAPEAAGGPSVFLFPPKPKDTLMISRTPEVTCVVVDVSQEDPEVQFNWYVDGVEVHNAKTKPREEQFNSTYRVVSVLTVLHQDWLNGKEYKCKVSNKGLPSSIEKTISKAKGQPREPQVYTLPPSQEEMTKNQVSLTCLVKGFYPSDIAVEWESNGQPENNYKTTPPVLDSDGSFLLYSKLTVDKSRWQEGNVFSCSVMHEALHNHYTQKSLSLSLGK
light: QAVVTQEPSLTVSPGGTVTLTCRSSTGAVTTSNYANWVQQKPGQAPRGLIGGTNKRAPGTPARFSGSLLGGKAALTLSGAQPEDEAEYYCALWYSNLWVFGGGTKLTVLGQPKAAPSVTLFPPSSEELQANKATLVCLISDFYPGAVTVAWKADSSPVKAGVETTTPSKQSNNKYAASSYLSLTPEQWKSHRSYSCQVTHEGSTVEKTVAPTECS
VH: not shown
VL: not shown
notes: also called B21M IgG4 x CD3B220
For the molecule B6, the values for the equilibrium dissociation constant (Kd) in experiment [5] and in experiment [6] were 48.6 nM and 36.8 nM, respectively.

B7: I3RB11 (antibody, IgG1, V domains shown)
VH: QVQLVQSGAEVKKPGSSVKVSCKASGGTFSSYGISWVRQAPGQGLEWMGGIIPIFGTANYAQKFQGRVTITADESTSTAYMELSSLRSEDTAVYYCARDLFSWRYSNFDYWGQGTLVTVSS
VL: not shown
notes: IgG1
Regarding B7, in experiment [1], the Kd amounted to 2.89 nM, the koff turned out to be 0.00253 s⁻¹ and the kon was found to be 874000 M⁻¹ s⁻¹. Also, the binding result in experiment [2] is “no binding (tested: 400 nM)”. Also, the binding result in experiment [4] was “no binding (tested: 10 µg/mL)”. Also, the binding result in experiment [3] is listed as “no binding (tested: 10 µg/mL)”.

B8: I3RB38 (antibody, IgG1, V domains shown)
VH: B7 VH with F101M, S102I, Y105F, S106E
VL: not shown
notes: IgG1
For B8, in experiment [1], the dissociation constant Kd amounted to 0.49 nM, the koff was 0.000434 s⁻¹ and the kon is 888000 M⁻¹ s⁻¹. In addition, in experiment [2], the binding result was “no binding (tested: 400 nM)”. The binding result in experiment [3] is “no binding (tested: 10 µg/mL)”.

What is called Kd is the concentration at which binding is half-saturated. What is called koff is the rate constant with which the complex falls apart. What is called kon is a measure of how fast the partners come together.
